Experimental data taken from PMC7271195, “CX3CL1 homo-oligomerization drives cell-to-cell adherence” (Scientific Reports, 2020).
Several values for one entry are separate records, joined by “and”; a condition that tells them apart may be missing. Equal entries are not always repeated. One block for each molecule: values may come before it. Ends that are not written are not given here.

Experiments:
[1] = molecular target: TM24 peptide expressed as a EYFP fusion in COS cells; experiment: FRAP; TM24 as EYFP fusion in live COS-7 cells, 37 °C; diffusion rate compared with membrane proteins of known number of TM domains
[2] = molecular target: the molecule itself; experiment: single-molecule photobleaching TIRF; L_(CX3CL1) membrane preparation diluted in excess DOPC, spread on a coverslip; stepwise bleaching of EYFP, 126 particles
[3] = molecular target: the molecule itself; experiment: native gel or EMSA; plasma membranes of L_(CX3CL1) solubilised with CALX173ACE, CX3CL1 immuno-purified on anti-CX3CL1 beads, eluted by pH shock; clear native PAGE 4-15%, 4 °C, Western blot
[4] = molecular target: the molecule itself; experiment: native gel or EMSA; L_(CX3CL1) cell lysate (40 µg total protein) solubilised in 1% DDM, NativePAGE Novex Bis Tris 3-12% gel, Western blot with anti-CX3CL1
[5] = molecular target: the molecule itself; experiment: FRAP; FITC peptides in giant unilamellar vesicles of EggPC, 1000 lipids per peptide, PBS; lateral diffusion rate
[6] = molecular target: the molecule itself; experiment: SDS-PAGE without cross-linker; 0.4 mg/ml peptide in DPC micelles, no BS3; SDS-PAGE, silver stain

stoichiometry N [1]: 7
Molecule: TM24 peptide expressed as a EYFP fusion in COS cells (domain or fragment)

B1: CX3CL1-EYFP fusion protein (L929 cells stably expressing CX3CL1-YFP) (natural protein, UniProt P78423 25-397, looked up)
chain: QHHGVTKCNITCSKMTSKIPVALLIHYQQNQASCGKRAIILETRQHRLFCADPKEQWVKDAMQHLDRQAAALTRNGGTFEKQIGEVKPRTTPAAGGMDESVVLEPEATGESSSLEPTPSSQEAQRALGTSPELPTGVTGSSGTRLPPTPKAQDGGPVGTELFRVPPVSTAATWQSSAPHQPGPSLWAEAKTSEAPSTQDPSTQASTASSPAPEENAPSEGQRVWGQGQSPRPENSLEREEMGPVPAHTDAFQDWGPGSMAHVSVVPVSSEGTPSREPVASGSWTPKAEEPIHATMDPQRLGVLITPVPDAQAATRRQAVGLLAFLGLLFCLGVAMFTYQSLQGCPRKMAGEMAEGLRYIPRSCGSNSYVLVPV
stoichiometry N [2]: 4.3 and 3 to 7 (2×) | stoichiometry N [3]: 5 | stoichiometry N [4]: ~3

B2: TM24-FITC (peptide)
peptide: KKVGLLAFLGLLFCLGVAMFTYKK
modifications: also: FITC, position not given here
notes: two lysines added to ensure solubility; the 20 residues of the TM domain of CX3CL1; also called TM24 conjugated with fluorescein; source: synthetic peptide
binding result [5]: binds

B3: TM24 peptide (transmembrane domain of CX3CL1 with two lysines at each end) (peptide)
peptide: KKVGLLAFLGLLFCLGVAMFTYKK
notes: two lysines added to ensure solubility; the 20 residues of the TM domain of CX3CL1; also called TM-CX3CL1 peptide; CX3CL1 transmembrane peptide; source: synthetic peptide
stoichiometry N [6]: 2
